In US20080213256A1 (MICROMET, published 2008):

Key:
EpCAM [1] = biological target: T1, EpCAM (UniProt P16422 24-314, limits assumed); experiment: FACS on Kato III cells, CHO supernatant (FIG. 2C)
T1 construct: whole, on cells; also called EpCAM on EpCAM positive Kato III cells
T1 sequence (looked up): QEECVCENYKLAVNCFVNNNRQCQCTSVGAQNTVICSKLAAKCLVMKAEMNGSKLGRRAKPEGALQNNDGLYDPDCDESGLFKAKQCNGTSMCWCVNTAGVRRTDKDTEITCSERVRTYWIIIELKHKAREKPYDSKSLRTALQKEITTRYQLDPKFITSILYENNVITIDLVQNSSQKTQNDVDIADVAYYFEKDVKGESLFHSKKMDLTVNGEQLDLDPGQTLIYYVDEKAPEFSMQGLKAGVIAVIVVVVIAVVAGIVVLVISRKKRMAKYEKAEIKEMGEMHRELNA

EpCAM [2] = biological target: T1, EpCAM; experiment: FACS on KatoIII cells, detection via His tag
human CD3 complex = human CD3 complex (human, UniProt P07766 23-207; P04234 22-171; P09693 23-182); experiment: cell-based or functional assay
CD19 = biological target: T2, CD19 (human, UniProt P15391 20-556); experiment: FACS on Nalm6 cells, detection via His tag
T2 construct: whole, on cells; also called CD19 on CD19 positive Nalm 6 cells; NALM-6
T2 sequence (looked up): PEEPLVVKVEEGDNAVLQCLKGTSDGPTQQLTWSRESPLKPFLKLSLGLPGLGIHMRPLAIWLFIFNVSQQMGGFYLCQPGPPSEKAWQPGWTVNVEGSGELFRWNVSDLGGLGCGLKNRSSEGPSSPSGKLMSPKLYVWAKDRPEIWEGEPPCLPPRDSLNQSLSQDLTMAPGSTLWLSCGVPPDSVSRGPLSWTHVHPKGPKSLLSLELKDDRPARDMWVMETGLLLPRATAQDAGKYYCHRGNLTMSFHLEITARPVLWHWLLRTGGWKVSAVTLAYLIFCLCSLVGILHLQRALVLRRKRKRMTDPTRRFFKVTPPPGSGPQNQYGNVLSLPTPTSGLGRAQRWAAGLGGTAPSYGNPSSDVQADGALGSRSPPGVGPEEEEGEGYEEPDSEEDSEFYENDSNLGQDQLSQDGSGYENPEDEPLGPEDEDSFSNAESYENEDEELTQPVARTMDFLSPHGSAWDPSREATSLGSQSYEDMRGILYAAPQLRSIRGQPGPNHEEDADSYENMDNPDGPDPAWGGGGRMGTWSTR
Procedure: CD19 positive Nalm 6 cells (human B cell precursor leukaemia) and CD3 positive Jurkat cells (human T cell leukemia) were used. 200,000 Nalm 6 cells and 200,000 Jurkat cells were incubated with 50 μl the pure cell culture supernatant of CHO cells transfected with the anti-CD19xhum. anti-CD3 specific polypeptide for 30 min on ice. The cells were washed twice in PBS. Then the binding of the construct was detected via its C-terminal Histidin Tag with a murine Penta H is antibody (diluted 1:20 in 50 μl PBS with 2% FCS; Qiagen) followed by a washing step and a Phycoerythrin conjugated Fc gamma specific antibody (Dianova), diluted 1:100 in 50 μl PBS with 2% FCS (FIG. 2A, thick line). As negative control fresh cell culture medium instead of cell culture supernatant was used (FIG. 2, thin line).
Cells were analysed by flow cytometry on a FACS-Calibur (Becton Dickinson, Heidelberg). FACS staining and measuring of the fluorescence intensity were performed as described in Current Protocols in Immunology (Coligan, Kruisbeek, Margulies, Shevach and Strober, Wiley-Interscience, 2002). The binding activity of the bispecific binding molecule was compared to the binding activity of the corresponding control bispecific antibody with the humanized OKT3 part as described in prior art.

B1: bispecific anti-EpCAM (5-10)x hum. anti-CD3 antibody construct (SEQ ID NO.: 36) (bispecific antibody)
chain: ELVMTQSPSSLTVTAGEKVTMSCKSSQSLLNSGNQKNYLTWYQQKPGQPPKLLIYWASTRESGVPDRFTGSGSGTDFTLTISSVQAEDLAVYYCQNDYSYPLTFGAGTKLEIKGGGGSGGGGSGGGGSEVQLLEQSGAELVRPGTSVKISCKASGYAFTNYWLGWVKQRPGHGLEWIGDIFPGSGNIHYNEKFKGKATLTADKSSSTAYMQLSSLTFEDSAVYFCARLRNWDEPMDYWGQGTTVTVSSGGGGSQVQLVQSGGGVVQPGRSLRLSCKSSGYTFTRYTMHWVRQAPGKGLEWIGYINPSRGYTNYNQKVKDRFTISRDNSKNTAFLQMDSLRPEDTGVYFCARYYDDHYCLDYWGQGTPVTVSSVEGGSGGSGGSGGSGGVDDIQMTQSPSSLSASVGDRVTITCRASSSVSYMNWYQQTPGKAPKRWIYDTSKVASGVPSRFSGSGSGTDYTFTISSLQPEDIATYYCQQWSSNPLTFGQGTKLQIT
notes: Bispecific single chain Fv, tested as CHO culture supernatant
EpCAM [1]
  binding result: binds

B2: bispecific anti-EpCAM (3-1)x hum. anti-CD3 antibody construct (SEQ ID NO.: 34) (bispecific antibody)
chain: ELVMTQSPSYLAASPGETITINCRASKSISKYLAWYQEKPGKTNKLLIYSGSTLQSGIPSRFSGSGSGTDFTLTISSLEPEDFAMYYCQQHNEYPYTFGGGTKLEIKGGGGSGGGGSGGGGSEVQLLEQSGAELVKPGASVKISCKASGYAFTNYWLGWVKQRPGHGLEWIGDLFPGSGNTHYNERFRGKATLTADKSSSTAFMQLSSLTSEDSAVYFCARLRNWDEAMDYWGQGTTVTVSSGGGGSQVQLVQSGGGVVQPGRSLRLSCKSSGYTFTRYTMHWVRQAPGKGLEWIGYINPSRGYTNYNQKVKDRFTISRDNSKNTAFLQMDSLRPEDTGVYFCARYYDDHYCLDYWGQGTPVTVSSVEGGSGGSGGSGGSGGVDDIQMTQSPSSLSASVGDRVTITCRASSSVSYMNWYQQTPGKAPKRWIYDTSKVASGVPSRFSGSGSGTDYTFTISSLQPEDIATYYCQQWSSNPLTFGQGTKLQIT
notes: as for B1
EpCAM [2]
  binding result: binds

B3: bispecific anti-CD19xhum. anti-CD3 antibody construct (SEQ ID NO.: 20) (bispecific antibody)
chain: DIQLTQSPASLAVSLGQRATISCKASQSVDYDGDSYLNWYQQIPGQPPKLLIYDASNLVSGIPPRFSGSGSGTDFTLNIHPVEKVDAATYHCQQSTEDPWTFGGGTKLEIKGGGGSGGGGSGGGGSQVQLQQSGAELVRPGSSVKISCKASGYAFSSYWMNWVKQRPGQGLEWIGQIWPGDGDTNYNGKFKGKATLTADESSSTAYMQLSSLASEDSAVYFCARRETTTVGRYYYAMDYWGQGTTVTVSSGGGGSQVQLVQSGGGVVQPGRSLRLSCKSSGYTFTRYTMHWVRQAPGKGLEWIGYINPSRGYTNYNQKVKDRFTISRDNSKNTAFLQMDSLRPEDTGVYFCARYYDDHYCLDYWGQGTPVTVSSVEGGSGGSGGSGGSGGVDDIQMTQSPSSLSASVGDRVTITCRASSSVSYMNWYQQTPGKAPKRWIYDTSKVASGVPSRFSGSGSGTDYTFTISSLQPEDIATYYCQQWSSNPLTFGQGTKLQIT
notes: Bispecific single chain Fv made in CHO cells; FACS used raw culture supernatant; the cytotoxicity assay used purified protein; also called anti-CD19xhum. anti-CD3 (improved hum. OKT3); bispecific humanized improved CD3 (hum. anti-CD3)
Human CD3 complex
  cytotoxic activity (EC50), calcein release from NALM-6 target cells with CD4-positive CB15 T-cells: 0.05 ng/mL
CD19
  binding result: binds
